Assay results: patent publication US20090311283A1
Read-outs that look alike come from different tables or passages of the source.

Tests used:
HLA-A*0301 (human) [1] = experiment: competition with 125I-labelled probe peptide for purified HLA, gel filtration; value relative to standard peptide
HLA-A*0301 (human) [2] = biological target: HLA-A*0301 (human)
HLA-A*0301 (human) [3] = experiment: competition with 125I-labelled probe peptide for purified HLA, gel filtration; relative to standard peptide
HLA-A*0301 (human) [4] = experiment: competitive inhibition of 125I-labelled probe peptide binding to purified HLA; relative to standard peptide
HLA-A*1101 (human) = experiment: as above
HLA-A*3101 (human) = experiment: as above
HLA-A*3301 (human) = experiment: as above
HLA-B*0702 (Human) [5] = experiment: competition with 125I-labeled probe peptide for purified HLA, gel filtration
HLA-B*0702 (Human) [6] = experiment: competition with 125I-labelled probe peptide for purified HLA, gel filtration
HLA-B*3501 (Human) = experiment: as above
HLA-B*5101 (Human) = experiment: as above
HLA-B*5301 (Human) = experiment: as above
HLA-B*5401 (Human) = experiment: as above
HLA-A*03 (Human) = conditions: remark: other sources report otherwise
HLA-A*0301 (human) [7] = experiment: competition with radiolabeled probe peptide for purified HLA, gel filtration
HLA-A*0301 (human) [8] = experiment: competition with 125I-labelled probe peptide for purified HLA-A*0301, gel filtration; relative binding against the standard peptide; conditions: scale: ratio
HLA-A*0301 (human) [9] = experiment: competition with 125I-labelled probe peptide for purified HLA, gel filtration; relative binding to standard peptide

Binder NSVVLSRK (modifications not checked) [HBV POL 738 NSVVLSRK] has a binding affinity ratio (IC50 of standard peptide / IC50 of test peptide) (HLA-A*0301 (human) [1]) of 0.0006.

For RAFPHCLAF (modifications not checked) [HBV POL 528 peptide …], the binding affinity ratio (IC50 of standard peptide / IC50 of test peptide) (HLA-A*0301 (human) [2]) was 0.0015.

RSPRRRTPSPR (modifications not checked) [HBV NUC 163 peptide …] gave a binding affinity ratio (IC50 of standard peptide / IC50 of test peptide) (HLA-A*0301 (human) [2]) of -0.0007.

Binder GIHLNPNKTK (modifications not checked) [HBV POL 567 …] has a binding affinity ratio (IC50 of standard peptide / IC50 of test peptide) (HLA-A*0301 (human) [3]) of 0.0025.

In the case of NLEDPASR (modifications not checked) [HBV NUC 75 peptide NLEDPASR], the binding affinity ratio (IC50 of standard peptide / IC50 of test peptide) (HLA-A*0301 (human) [4]) is reported as -0.0002, the binding affinity ratio (IC50 of standard peptide / IC50 of test peptide) (HLA-A*1101 (human)) is reported as -0.0002 and the binding affinity ratio (IC50 of standard peptide / IC50 of test peptide) (HLA-A*3101 (human)) is reported as -0.0009. The binding affinity ratio (IC50 of standard peptide / IC50 of test peptide) (HLA-A*3301 (human)) was -0.0009.

Binder GMDIDPYKEF (modifications not checked) [HBV NUC 29 …] has a binding affinity ratio (IC50 of standard peptide / IC50 of test peptide) (HLA-A*0301 (human) [3]) of -0.0003.

Binder LTVNEKRR (modifications not checked) [HBV POL 99 peptide LTVNEKRR] has a binding affinity ratio (IC50 of standard peptide / IC50 of test peptide) (HLA-A*0301 (human) [4]) of -0.0002, a binding affinity ratio (IC50 of standard peptide / IC50 of test peptide) (HLA-A*1101 (human)) of -0.0002 and a binding affinity ratio (IC50 of standard peptide / IC50 of test peptide) (HLA-A*3101 (human)) of -0.0009. The binding affinity ratio (IC50 of standard peptide / IC50 of test peptide) (HLA-A*3301 (human)) was -0.0009.

Binder NLEDPASR (modifications not checked) [HBV NUC 75 NLEDPASR] has a binding affinity ratio (IC50 of standard peptide / IC50 of test peptide) (HLA-A*0301 (human) [1]) of -0.0002.

GLLGFAAPF (modifications not checked) [HBV POL 627 …] gave a binding affinity ratio (IC50 of standard peptide / IC50 of test peptide) (HLA-A*0301 (human) [2]) of 0.0006.

Work on VPNLQSLTNL (modifications not checked) [HBV POL 398 peptide …] yielded a binding affinity ratio (IC50 of standard peptide / IC50 of test peptide) (HLA-B*0702 (Human) [5]) of 0.0006.

PPHGGLLGW (modifications not checked) [HBV ENV 58 peptide …] gave a binding affinity ratio (IC50 of standard peptide / IC50 of test peptide) (HLA-B*0702 (Human) [6]) of 0.0001, a binding affinity ratio (IC50 of standard peptide / IC50 of test peptide) (HLA-B*3501 (Human)) of 0.0002 and a binding affinity ratio (IC50 of standard peptide / IC50 of test peptide) (HLA-B*5101 (Human)) of 0.0001. The binding affinity ratio (IC50 of standard peptide / IC50 of test peptide) (HLA-B*5301 (Human)) was 0.0003 and the binding affinity ratio (IC50 of standard peptide / IC50 of test peptide) (HLA-B*5401 (Human)) was 0.0002.

SVVRRAFPH (modifications not checked) [Peptide 20.0131 (HBV pol 524, …)] showed an IC50 (HLA-A*03 (Human)) of 100 nM.

LIMPARFY (modifications not checked) [HBV POL 109 LIMPARFY] gave a binding affinity ratio (IC50 of standard peptide / IC50 of test peptide) (HLA-A*0301 (human) [7]) of -0.0002.

Work on SVVLSRKY (modifications not checked) [HBV POL 739 peptide SVVLSRKY] yielded a binding affinity ratio (relative to standard peptide) (HLA-A*0301 (human) [8]) of -0.0002.

LTVNEKRR (modifications not checked) [HBV POL 99 LTVNEKRR] showed a binding affinity ratio (IC50 of standard peptide / IC50 of test peptide) (HLA-A*0301 (human) [1]) of -0.0002.

With LLVLQAGFF (modifications not checked) [HBV ENV 175 …] the binding affinity ratio (IC50 of standard peptide / IC50 of test peptide) (HLA-A*0301 (human) [7]) was 0.0006.

Binder QAFTFSPTY (modifications not checked) [HBV POL 654 peptide …] has a binding affinity ratio (IC50 of standard peptide / IC50 of test peptide) (HLA-A*0301 (human) [9]) of 0.003.
